Measured values published in article PMC4464295, “Orthogonal dual-modification of proteins for the engineering of multivalent protein scaffolds” (Beilstein Journal of Organic Chemistry, 2015).

T1: Erythrina cristagalli lectin (Erythrina cristagalli, UniProt P83410 1-239)
T1 construct: also called ECL
T1 sequence (looked up): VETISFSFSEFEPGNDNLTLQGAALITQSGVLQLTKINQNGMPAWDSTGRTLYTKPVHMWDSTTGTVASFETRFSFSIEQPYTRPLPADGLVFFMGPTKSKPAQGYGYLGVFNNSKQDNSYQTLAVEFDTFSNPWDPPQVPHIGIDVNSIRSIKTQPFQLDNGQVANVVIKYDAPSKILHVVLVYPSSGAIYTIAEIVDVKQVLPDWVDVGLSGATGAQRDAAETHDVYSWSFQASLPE

B1: Biotinylated thermophilic lipase from Thermoanaerobacter thermohydrosulfuricus with azidohomoalanine, carrying 1-2 galactose units (Gal-1) (enzyme)
chain: SQKAVEITYNGKTLRGMMHLPDDVKGKVPMVIMFHGFTGNKVESHFIFVKMSRALEKVGIGSVRFDFYGSGESDGDFSEMTFSSELEDARQILKFVKEQPTTDPERIGLLGLSMGGAIAGIVAREYKDEIKALVLWAPAFNMPELIMHESVKQYGAIMEQLGFVDIGGHKLSKDFVEDISKLNIFELSKGYDKKVLIVHGTNDEAVEYKVSDRILKEVYGDNATRVTIENADHTFKSLEWEKKAIEESVEFFKKELLKG
modifications: all Met replaced by azidohomoalanine (Aha), nine Aha residues; N-terminal Met/Aha excised; N-terminal Ser (Ser2) oxidised with NaIO4 to the aldehyde and joined to biotin hydroxylamine 1 by oxime ligation; 1-2 Aha residues joined to butynyl galactose 2 by CuAAC (positions not given)
B2: Biotinylated thermophilic lipase from Thermoanaerobacter thermohydrosulfuricus with azidohomoalanine, carrying 3-4 galactose units (Gal-3) (enzyme)
chain: B1 chain
modifications: all Met replaced by azidohomoalanine (Aha), nine Aha residues; N-terminal Met/Aha excised; N-terminal Ser (Ser2) oxidised with NaIO4 to the aldehyde and joined to biotin hydroxylamine 1 by oxime ligation; 3-4 Aha residues joined to butynyl galactose 2 by CuAAC (positions not given; two found by MS/MS, Table S5)

Molecular target: T1, Erythrina cristagalli lectin
Assay: SPR; BiacoreX; biotinylated TTL sample on streptavidin chip loaded to one third; at least five ECL concentrations (Gal-0 once at 100 µM ECL); equilibrium binding, Langmuir isotherm fit; KDs determined twice
Conditions: both partners purified

Row | Binder | Kd
1 | B1 | 70 µM
2 | B2 | 60 µM
